Test results published in the DeepSol protein solubility set.

Assay: soluble on expression in E. coli; label from the status in PepcDB or PDB records

Sequence	soluble on expression in E. coli
MDGSMGEGGGQILRTAVALAAVLGRPLRIVNIRAKRRPPGLRPQHLTAVRAVAAISGGRLRGAEVGSTSLEFTPGRVRGGRYRFDVGTAGSVALIIQALAPLLAYSDSPVEVELTGGTDVPMAPTIDYMREVFASILAMLGYEIEIRVLRRGHYPRGGGRVVVRVPDPPGGFRARSFVERGPLKGVYVRSHAVKLPGSIAERQARSAASLVRERLGVDPIVEIEAYKPHRDPHLGPGTGVLVWAVFGETVMGGDSIGKKGKPAEVVGREAAESLLEDMATGAALDRHMSDMAPVYLALAGGVSTVFGARLTGHASTILELLRIMVDGFEYRILEGGLERPFKAELRGAGVSPR	soluble
MDHGVVLLSDDQGLQWRQASSVPLSTPLTGVSFVDAKRGWAVGHWGAILITTDGGESWQVQRLATEEDRPLFAVHFFNARQGVAVGLWSLVLTTEDGGQTWSEQPLQAPPGAKRADLNLMGLFADSRGTLYATAEHGQVLHSEDQGKNWRYLDTGYEGTLWAGAVLADGRLLLGGQRGTLLQGSADGKGFHRVPTQSKGSVTCVAVAGSRVLAVGLDGLSVQSSDGGHSFQETQTADGLSLTAALFNAEGVPVLFSRRGVMPYQELEHHHHHH	not soluble
MDIDECESGAHQCSEAQTCVNFHGGYRCVDTNRCVEPYIQVSENRCLCPASNPLCRE	soluble
MDINGGGATLPQALYQTSGVLTAGFAQYIGVGSGNGKAAFLNNDYTKFQAGVTNKNVHWAGSDSKLSATELSTYASAKQPTWGKLIQVPSVGTSVAIPFNKSGSAAVNLSVQELCGVFSGRINTWDGISGSGRTGPIVVVYRSESSGTTELFTRFLNAKCNAETGNFAVTTTFGTSFSGGLPAGAVAATGSQGVMTALAAGDGRITYMSPDFAAPTLAGLDDATKVARVGKNVATNTQGVSPAAANVSAAIGAVPVPAAADRSNPDAWVPVFGPDNTAGVQPYPTSGYPILGFTNLIFSQCYADATQTTQVRDFFTKHYGASNNNDAAITANAFVPLPTAWKATVRASFLTASNALSIGNTNVCNGIGRPLLEAAHHHHHH	soluble
MDIRKEFEHLQYFFDSYYNQTFYNAQLEEQFLRFLADEPEWVVRALKLEVEKLERIHHRRDTETWAKIEELVHENSMRYFSFEDGKTFIKVASLLLKDID	not soluble
MDKRYLESDVFEAFQERLSYLFNEFDYIYVSFSGGKDSGLLLNLVLDYKRKNNISSKIGVFHQDFEAQYSLTTEYVEKVFEDNIEDIEPYWVCLPMATRTAVGNYEMYWYPWDDEKEELWVREMPVKEYIINQKNNPFTYYKYKMRQESLAKQFGRWIRDIHEGAKVVCLLGTRAAESLQRYCSIVNKQHGYKGKCWITKEFKNVWTASPIYDWEIEDIWLAHYKFDYDYNKIYDLFYK	not soluble
MDKTTHDKGLEIRKAVLGEAYVENALKNADDFNQPFQELVTEYCWGAIWGRDGLPKKTRSMLNLAMIAILNRPHELRAHIKGALTNGVTKDEIREIFMQVACYAGIPAGVDSFRIAREVFAELDKA	not soluble
MDLFADAPLTLPDADLRYLPHWLDAPLASAWLLRLEQETPWEQPILRIHGEEHPTPRLVAWYGDPDAAYRYSGQVHRPLPWTALLGEIRERVEREVGQRVNGVLLNYYRDGQDSMGWHSDDEPELRRDPLVASLSLGGSRRFDLRRKGQTRIAHSLELTHGSLLVMRGATQHHWQHQVAKTRRSCMPRLNLTFRLVYPQPLEHHHHHH	soluble
MDLLVVVPHPDDESFGAGGALLLAKEAGLKTGVLTLTRGEAGRTLGLCPPKELPQVRVEELKRAAAVLQVDYLEVLDYPNALPEGAQGERGPATGRGLADHPEAVEAIRTRLLRLRPRFVLTFPPDGINGHPDHVAASRYAREAAQGLAQVVYLVRPDGPWPVTHRLRLPERVLARKLQAIAQHKTQALSVLKFLEMFPERLWTETFHLPGASGLREGPWW	soluble
MDLSPLDVRYQEFPRAFRGYHRGAVREYLARVAEAMEALIRENEVLKERLRALEEENARLKEAEGELKRAVVAAERIARELKAQAEREAELLRKEAQAAKERLLQEAAQELKRLRAEIERARQEKALFLGQVRALFEGYLEALKRLEKTP	soluble
MDMELTYIYHSGFALSGDGFTVIMDYYRDSEDGQAQADLNRLMDGTFSNQEAGMPEGTVHSELLRRPGKLYVLASHFHPDHFNKEVLQWREQRPDIIYIFSKDILRHRRAQKEDAVWLKKGEEYKDETLSVRAFGSTDVGVSFLLQTGGKKIFHAGDLNNWHWMDESTEAEWKGAEKNFLHELDDLYAYTPEVDVAMFPVDPRLGKEYMRGAGQFVTKIKTHIFVPMHFTPEYAKANAFRDFAEAHGVRFVSLTHRGQKIEIE	soluble
MDNELTSRPDSIMDTEPTTLPDSAMDTKPTNLPDFPSTSQEPVSRRTRSRTLSDNSNAVWKRERRSRETSQESESRLRMDWERKKEKRASMSEEEKAEMKYKKRVWMKKKRNEVAKTHDTSSVANPNYLGSMRCVCKNCNARFFQGIHFFKV	not soluble
MDNFENLSTKDSFPEHFRRAVRGIFPDSQLPDEFFLVVYRDGKFERSLQPTATFAGRKAPVVIIPQWKEKHTLEIGNYRKVVDEEFYQIGGKMIYAGRDIFIEDVPGLYRNIDMVFLDGEKECIYRDGFLMMEEKILKIEEPVDVVDGIVITRHRMGSKEIDDTILFRWNNFVLTASGFLVDIKGKWSWKVSNAPVEFSFQGDIFYVLDVCGFLRSYNLKTRQLLWEKKFEGAWGLDSSKDRVFLGAGDEVLVLNAQDGETIERMEADDFAVWKGRLLVYKDGKVDGEDMEGFFIRNFGMPLFVSGKRVVMFGTEKKEFEEVEKVRLFDWGTVIKAGDELWLIRRD	not soluble
MDNKSEKVTVNKEELRKRLTPVQYQVTQEAGTERPFTGCYNKHYEKGVYQCIVCHQDLFSSETKYDSGCGWPAFNDVLDKGKVTLHRDASIPGGNILLLIAHPERIRTEVRCARCNAHMGHVFEDGPKPTRKRYCINSASIEFVNADPATSSPPVATPTAAPIAQQLEHHHHHH	soluble
MDNVSNVRTGGCHCGAVRFEVTLSDGFDSIRRCTCSYCRMRGAVVAMAEMGGIKILQGEEVLTTYRFHTRAAQHFFCSRCGIYTHHQRRSNQNLYAVNVACLDGVSPFDFTEVPVMDGINHTNDTGQPTRRAGTLRFIASE	not soluble
MDPAKNEYGMGSTLTTLAYEKFAKAAKYNTQQNDLAAPTAQLDIAVSLSGFKEGDSNYPINPILKLTNNSTQTIPGGTRIEFLVPTSTSDTITDQSGMGLKVVESGGNQNSDGIAGEKDFHKAAFTLPTWKAWAPGSDVEVAMTYYLPAAGVPSGIRIISGTQTAGLKAEFPTLPEAVLEHHHHHH	soluble
MDPELLRQRTAFQKHAATTMAVQNKPTTAPNSHTTYSSEAAKAKKKKSSGPAQNLSKLPDFNNSVSNANALSNATNFSTMAKIVDYMKKRHLNNQQWPLTLQEILDELQIFDLSKRSLAFLQEALPNNPRLIMESEKFAFRPPYKIKGKTSLVAVARKHYQDGKGGILVSDLAECVANYDALLQQVSSEVIVVPTQVNKKKDRVVFYNDKEFTFPELEDDFKALWRHVSVDHLDEKKIEEYLQKKGLDAMKDLTPKVRMQAPLKRKAAKRRFNQKVQNEHMDGVLEDYE	soluble
MDPTQHRKAARPCDARRVLVLQGGGALGAYQAGAYQALCHHDFEPQWLAGISIGAINAAIIAGNPREQRVEKLKQFWEMASSPVPWQPLLRDDHVHSLFNETSAAMIATFGVPGFFTPRFPPTHLLPSGKPSNLSYYDTAPLRSTLERLVDFDRLNHNGIRLSVGAVNIATGNFVYFDTTKQIIGPEHIMASAALPPGFPAIEIDGEHYWDGGVASNTPLDYVL	not soluble
MDPVFSRLLETANSVILGKEQPIRLCICCLLARGHLLIEDVPGVGKTTLARTLAALLGLKYQRIQFTSDLLPADVLGSSIYDATTHGFRFHPGPVFNPMVLADEINRSTPRAQSALLEAMEERQVTVEGETRPLPEPFFVIATQNPNTQIGTFPLPESQLDRFLMRIELGYPDPRAERELLMGEERYALLPQLPVCLPAERLLALQSRVRDVHASSALLDYVQALLHFSRESPLYQNGLSPRAGLALLHAAKAWALMDGRAAVLPEDIQAVLPPVAGHRLKLASGGGGMAETVAPLLRDVAIPLEHHHHHH	not soluble
MDQKKDPSNNLTERRVSKVQRPNKKKVRNQVESLSRNLERNKEGQLLQTVSKGHLEADSGHSLGREKENGELGIRSIFYDKDWNPRGTAPSHYRNIPYNPATFKRRTEVQARLGNLENIKIPK	not soluble
MDQKSSSPQPAAQAPETKQAFPRKFVLAALEQSSDDAGWANLGNFGNYLNKLQPDFDSRLYGYKKLSDLVKARTDLFVTEERQVPGSTQKALYLRAKLEHHHHHH	soluble
MDQLSAMRAFVRVVETGSFSATGKEMNTSQTTISKKVAALENQIGVKLLTRSSRDHSLTPAGSDYYQTCVNILSELDEVEAKVRSKATLPQGSIRITAPVAFGRFLLAPIVAEFFQHYPDIKIDLLLNDKHVNLISEGIDVAIRAKNLEDSSLVARHLLDNPMYLFASPDYLEQYGEPKHPNELSTHNCLIYSGLQDAHIWNFNHGEKEYSVPVKGNFQSDNGDVLLDVALTGVGIVSLPIWMAKAHLTSGHLRQIMTKYSGQQLPINAIYPQRRYTPLKVRCFIDFLKQKLSE	not soluble
MDRFKVVVTDYEFQTLAPEQEVLSSLNVEFVATQCRTEEEVISACRDADAIINQYAPISAEVIAQLEKCKIISRYGVGVNTVDVDAATEKGIIVANVTDYSIDEVSDHALALLLSLARKIVKLNHEVKSGTWNFNVGKPIYRLRGRTLGLVGLGRIPQALAKKAQAFGLRVIAYDPYVPAKVADELNVQLLGLNDVFRQSDYISVHAPLTKETKGMISDEQFNLAKKELIIVNTARGPVIDESALIRALQEGKISGAGLDVTECEPIQPDNPLLKMENVVITPHVAWYSEESEKELKRKTAQNVADVLSGYYPTYLVNHNVKEKMRLKEKGLYV	soluble
MDRFNEYRIMWVLVLFDLPTETKKEKKAYADFRKNLQKDGFTMFQFSIYVRHCGSSENAAVHIKRVKSFLPEFGHVGIMCITDKQFGDIELFYGKKVQDVNTPGQQLELFLEHHHHHH	not soluble
MDRGVAQVASAPALGAGGRWFKSSRPDHFFIEVDKALLKEVKDMPIYRYVCEECGYETTVMHGINESPEVICEECGAKMKRTIGRVGIIFKGSGFYITDSRKSEKKKEAASASSEKKD	not soluble
MDRNLVQKGDAPPSKRSDPGTEFCVDIVVKGRKTEVPERFRKHVAEKLKLEKIQKLDGKVISLDVEVSKEPNPRQADRCDRVEITLRSRGPVIRAEAAASDPYAALDLAAEKLGARLRKQHDKRFSRRGARRISAAEVADHVPGAATLNGNGDVVPTEKQDGVPTKKIGSLEVQGDGPLVVREKTHVAAPMSLDQALYEMELVGHDFYLFVDSETKEPSVVYRRHAYDYGVIHLTTDTMVTQAHAPDAGDALGGLEHHHHHH	not soluble
MDRQGFVPAAYVKKLDSGTGKELVLALYDYQEKSPREVTMKKGDILTLLNSTNKDWWKVEVN	soluble
MDRSFCDAGCGVGSLSLPLAQRGAQAVYASDISAKMVEEARERASQIPNLNNIQLEVSDLASLSGRYDTVICLDVLIHYPESDAAAMLSHLCSLAEQRVLVSFAPKSPVLNVLKRIGQFFPGASKTTRAYQHSETAIAAALAANGFQVQRRAFNKAPFYFSLLLEAVRTALEHHHHHH	soluble
MDSFWFVQQWPPAVCSFQKSGSCPGSGLRTFTIHGLWPQQSGTSLTNCPGSPFDITKISHLQSQLNTLWPSVLRANNQQFWSHEWTKHGTCSESTFNQAAYFKLAVDMRNNYDIIGALRPHAAGPNGRTKSRQAIKGFLKAKFGKFPGLRCRTDPQTKVSYLVEVVACFAQDGSTLIDCTRDTCGANFIF	soluble
